Target: murine PECAM-1 on cells (bEND3 endothelial cells; REN cells transfected with full-length mouse PECAM) (mouse) (UniProt Q08481)
Assay: flow cytometry on CD31 positive bEND3 endothelial cells

Chain of murine PECAM-1 on cells (bEND3 endothelial cells; REN cells transfected with full-length mouse PECAM) (mouse) (Q08481 18-727): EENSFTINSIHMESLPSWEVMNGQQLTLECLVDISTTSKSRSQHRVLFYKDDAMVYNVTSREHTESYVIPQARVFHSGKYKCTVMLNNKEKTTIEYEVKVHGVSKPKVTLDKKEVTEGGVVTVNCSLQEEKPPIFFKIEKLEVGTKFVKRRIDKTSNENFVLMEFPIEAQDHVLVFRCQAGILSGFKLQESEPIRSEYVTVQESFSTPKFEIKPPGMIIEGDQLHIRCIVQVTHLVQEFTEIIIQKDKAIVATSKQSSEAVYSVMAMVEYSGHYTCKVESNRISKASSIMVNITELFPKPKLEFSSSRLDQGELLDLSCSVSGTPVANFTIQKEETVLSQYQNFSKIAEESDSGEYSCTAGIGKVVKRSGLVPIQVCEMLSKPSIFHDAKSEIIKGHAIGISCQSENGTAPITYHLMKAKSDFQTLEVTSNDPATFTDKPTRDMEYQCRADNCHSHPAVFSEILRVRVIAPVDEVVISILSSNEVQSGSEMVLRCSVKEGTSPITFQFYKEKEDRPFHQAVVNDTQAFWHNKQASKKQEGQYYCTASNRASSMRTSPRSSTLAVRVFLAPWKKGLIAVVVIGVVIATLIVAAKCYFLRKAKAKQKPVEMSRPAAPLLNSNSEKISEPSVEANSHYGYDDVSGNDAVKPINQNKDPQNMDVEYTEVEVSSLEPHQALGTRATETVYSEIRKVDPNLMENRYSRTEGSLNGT

half-maximal binding: 50 nM
Substance: anti-PECAM scFv (from antibody 390) tagged with soluble tissue factor (sTF)
